Measured values published in US8129592B2, “Plant isoflavonoid hydroxylases and methods of use thereof” (The Samuel Roberts Noble Foundation, Inc., priority 2003, dated 2012).

What was measured:
[1] = substrate: COc1ccc(-c2coc3cc(O)cc(O)c3c2=O)cc1; test: Hydroxylase assay with yeast microsomes expressing recombinant MtCYP81E9 (I3′H); format: biochemical, Medicago truncatula; settings: other: 2 mM NADPH and pH 8.0, 25.0 °C
Experimental: (§1) After induction with 20% galactose for ˜18 h, yeast cells was harvested, weighed, and immediately processed for microsomal fractionation.
(§2) After incubation at ˜80 rpm for 30 to 40 min, spheroplasts were centrifuged down for 5 min, washed twice with Zymolyase buffer B, and then twice with phosphate buffer A (0.1 M potassium phosphate pH 8.0, 1 M sorbitol, 14 mM 2-mercaptoethanol). The spheroplasts were re-suspended in a minimum vol of phosphate buffer B (0.1 M potassium phosphate pH 8.0, 0.4 M sucrose, 14 mM β-mercaptoethanol, 1 mM PMSF and 1× protein inhibitor cocktail (Roche Diagnostics GmbH, Mannheim, German), and 1 vol of glass beads (diameter at 0.45/0.50 mm) was added. Samples were vigorously vortexed at 4° C., with the quality of cell disruption checked under the microscope. The supernatant was then removed and the beads washed four times with phosphate buffer B. Supernatants were pooled and centrifuged at 12,000 g for 10 min; the resulting supernatant was then ultracentrifuged at 140,000 g for 90 min. The supernatant was discarded and the pellet washed briefly with phosphate buffer C (0.1 M potassium phosphate, pH 8.0, 0.4 M sucrose, 0.5 mM glutathione), and re-suspended in the same buffer plus 5% glycerol at about 12 mg total protein/ml. Protein was quantified using a Bio-Rad protein assay kit (Bio-Rad, Hercules, Calif.).
(§3) Hydroxylase assays were performed in phosphate buffer C in a total volume of 150 μl containing 2 mM NADPH, 40 μM isoflavone substrate and 40˜70 pmol P450 protein. Reactions were incubated at 25° C. for 1.5 h (over which period the reactions were linear) with gentle shaking and stopped by extracting twice with 500 μl of ethyl acetate. The extracts were combined, evaporated under N2, re-suspended in 60 μl of methanol, and analyzed by HPLC or LC-MS. All assays to determine enzyme specificity were carried out in duplicate. For kinetic studies, the isoflavone concentration was varied at a fixed concentration of NADPH (2 mM), and kinetic constants calculated from initial rate data using Lineweaver-Burke double reciprocal plots. All kinetic analyses were carried out in triplicate.
(§4) Reaction products from enzyme assays (30 μl) were analyzed by HPLC.
(§5) Product identification was firstly based on comparisons of chromatographic behavior and UV spectra with authentic standards. Identifications were then confirmed by HPLC-MS, using a HP 1100 liquid chromatograph coupled to a Bruker Esquire Ion-Trap mass spectrometer equipped with an electrospray source. HPLC separation was achieved using a J. T. Baker Bakerbond reverse-phase column (C18, 5 μm, 4.6 mm×250 mm, J. T. Baker, Philipsberg, N.J.). […] Mass spectra were recorded over a range of 50-2200 m/z.

[2] = substrate: COc1ccc(-c2coc3cc(O)ccc3c2=O)cc1; test: as above; format: biochemical, Medicago truncatula; settings: other: 2 mM NADPH and pH 8.0, 25.0 °C
Experimental: as §1, §2, §3, §4, §5

B1: I3′H (MtCYP81E9) (Medicago truncatula) (protein)
chain: MTLFYYSLLSLSFIITIKILLKITSRRLKNLPPGPPTIPIIGNLHHLKHPLHRTFTTLSQTYGDIFSLWFGSRLVVVVSSPSLAHECFTKNDIILANRPRFLTGKYIFYNYTTLGSASYGDHWRNLRRITTIDVLSNNRLNSFLGVRRDETNRLIQKLLKDVVSEGFGFTKVELRPRLTEMTFNAMMRMISGKRYYGDDGDVSDVEEAKQFREIISEMMSLLGANNKGDFLPLLRVVDLDNLEKRCKRIAKRSNAFLEGLIEEHRRGNIHSDGGTMIDHLLKLSESQPEYYSDHLIKGLIQGMLLAGTDTSAVTIEWVMSELLNHPEVLKKAKEELDTQIGKNKLVDEQDLSKLPYLQNIISETLRLHPPAPLLLPHYSSEDCTIGEFNVPKDTIILTNVWGIHRDPKHWNDALSFKPERFEKEEEVNKVMAFGLGRRACPGLSLAQRTVGFTVGLLIQCFEWERESEEKLDMMEGKGITMPMKIPLRAMCKALPIANDVTK
notes: made in house; host or cells: Saccharomyces cerevisiae WAT11, vector YeDP60; microsomal fraction
[1]
  Km: 112.6 µM
  kcat: 0.1 s⁻¹
[2]
  Km: 49.7 µM
  kcat: 0.028 s⁻¹
